B1: IL-1β: rat-recombinant interleukin-1β microinjected into the striatum (protein, UniProt Q63264 117-268, looked up)
Interleukin-1 beta: VPIRQLHCRLRDEQQKCLVLSDPCELKALHLNGQNISQQVVFSMSFVQGETSNDKIPVALGLKGLNLYLSCVMKDGTPTLQLESVDPKQYPKKKMEKRFVFNKIEVKTKVEFESAQFPNWYISTSQAEHRPVFLGNSNGRDIVDFTMEPVSS
B2: LT-α: rat-recombinant lymphotoxin-α microinjected into the striatum (protein, UniProt Q06332 34-202, looked up)
Lymphotoxin-alpha: LSGVRFSASRTAHQPPQKHLTHGLLKPAAHLVGYPSKQNSLLWRANTDRAFLRHGFSLNNNSLLIPTSGLYFVYSQVVFSGESCSPRAIPTPIYLAHEVQLFSSQYPFHVPLLSAQKSVYPGLQGPWVRSMYQGAVFLLSKGDQLSTHTDGISHLHFSPSTVFFGAFAL

Test system: platelet adhesion to brain endothelium
Assay: Platelet and leukocyte immunohistochemistry after intrastriatal cytokine microinjection (rat)
Assay type: in vivo
Conditions: versus vehicle, TNF at 24 h
Experimental: Rat-recombinant TNF and IL-1[…] were obtained from the National Institute for Biological Standards and Controls (NIBSC, Potters Bar, UK). Rat-recombinant LT-[…] and mouse-recombinant TNF was purchased from R&D Systems (Abingdon, UK). The cytokines were dissolved in endotoxin-free saline (vehicle). The cytokines contained a maximum of 100 IU endotoxin/mg cytokine (corresponding to 10 ppm by weight), which, in view of previous studies, was considered negligible in the context of these experiments.
12-week-old male Wistar rats or 8-week-old NMRI mice were used for the injection of the recombinant cytokines (Charles River, Margate, UK). Both rats and mice responded to the injection of cytokines in an identical manner. […]
Frozen, 10 μm-thick serial coronal sections were cut from tissue blocks. […] The numbers of positive cells present in the brain were quantitated. For each tissue section, 4 representative fields were chosen and the average number of positive cells was calculated and expressed as number of cells per mm^2.
The p55 mouse anti-rat platelet GPIIa monoclonal antibody was a kind gift from Kirin Brewery Co Ltd, Takasaki, Japan. The numbers of platelet positive elements present in the brain were quantitated. For each tissue section, 6 representative fields were chosen and the average number of positive elements was calculated and expressed as number of discrete elements per mm^2.

| Molecule | number of platelet positive elements |
| --- | --- |
| B1 | did not increase |
| B2 | did not increase |
